This note sets out measurements from article PMC11621567 (Nature Communications, 2024).

Data set [1] concerns the molecule itself. Put plainly: cryo-EM structure.
Data set [2] deals with the molecule itself. The experiment in a line: cryo-EM structure. The source holds these as a separate data set.

Like-named read-outs stand apart in the source and are kept apart here.

B1: human GPR156 EM (residues 1–346), apo (receptor)
chain: MEPEINCSELCDSFPGQELDRRPLHDLCKTTITSSHHSSKTISSLSPVLLGIVWTFLSCGLLLILFFLAFTIHCRKNRIVKMSSPNLNIVTLLGSCLTYSSAYLFGIQDVLVGSSMETLIQTRLSMLCIGTSLVFGPILGKSWRLYKVFTQRVPDKRVIIKDLQLLGLVAALLMADVILLMTWVLTDPIQCLQILSVSMTVTGKDVSCTSTSTHFCASRYSDVWIALIWGCKGLLLLYGAYLAGLTGHVSSPPVNQSLTIMVGVNLLVLAAGLLFVVTRYLHSWPNLVFGLTSGGIFVCTTTINCFIFIPQLKQWKAFEEENQTIRRMAKYFSTPNKSFHTQYGEE
B1: the “stoichiometry N” value in “cryo-EM structure [1]” stood at 2.

B2: human GPR156 EM (residues 1–346) in the GPR156–Gi3 complex (receptor)
chain: MEPEINCSELCDSFPGQELDRRPLHDLCKTTITSSHHSSKTISSLSPVLLGIVWTFLSCGLLLILFFLAFTIHCRKNRIVKMSSPNLNIVTLLGSCLTYSSAYLFGIQDVLVGSSMETLIQTRLSMLCIGTSLVFGPILGKSWRLYKVFTQRVPDKRVIIKDLQLLGLVAALLMADVILLMTWVLTDPIQCLQILSVSMTVTGKDVSCTSTSTHFCASRYSDVWIALIWGCKGLLLLYGAYLAGLTGHVSSPPVNQSLTIMVGVNLLVLAAGLLFVVTRYLHSWPNLVFGLTSGGIFVCTTTINCFIFIPQLKQWKAFEEENQTIRRMAKYFSTPNKSFHTQYGEE
As to B2, in the data set “cryo-EM structure [2]”, the “stoichiometry N” value was 2.

Broadly, the stoichiometry N is a count of units in the complex or per binding partner.
